This note sets out measurements from article PMC4505822.

The target of the test is insertion mutant recombinant human prion protein with five additional octapeptide repeats (human) (UniProt P04156). Kind of test: AFM height measurement with a calibration curve of marker proteins.

Consider “insertion mutant recombinant human prion protein with five additional octapeptide repeats (from UniProt P04156 23-231) (natural protein)”, for which the stoichiometry N fell in the range of 11 to 22 monomers.
